Target: FcγRIIIa (UniProt P08637)
Assay: SPR as in Example 4; glyco-enriched samples of belantamab

FcγRIIIa, sequence (P08637 17-208 limits assumed): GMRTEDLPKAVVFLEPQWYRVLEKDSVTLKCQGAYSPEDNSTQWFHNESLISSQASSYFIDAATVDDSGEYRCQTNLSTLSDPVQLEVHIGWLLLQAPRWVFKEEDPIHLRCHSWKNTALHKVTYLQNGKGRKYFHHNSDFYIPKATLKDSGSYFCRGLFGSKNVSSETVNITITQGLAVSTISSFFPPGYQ

Specific FcγRIIIa binding activity: 8%
Substance: belantamab deglycosylated with PNGaseF (antibody)
